In the Human Domainome abundance scans (Beltran et al. 2025) one finds abundance fitness data, which are given here for 64 variants.

± gives the uncertainty stated by the source.

B1: Endonuclease CUE2, residues 9 to 47; numbered along this chain, P36075 (parent)
chain: HESKLSILMDMFPAISKSKLQVHLLENNNDLDLTIGLLL

Variants of B1 are the subject of the data set. Description: abundance fitness (aPCA) (normalised: wild type 0, dead -1); higher = more abundant; growth selection in yeast, the domain comes from the species named. To be noted: Saccharomyces cerevisiae (strain ATCC 204508 / S288c).
Consider HESKLSILMDMFPAISKSKLQVHLLENNNDLKLTIGLLL [D32K], for which the abundance fitness is -0.003 ± 0.079. The same measure for HESKLSILMDMFPAISKSKLQVHLLENNNDLALTIGLLL [D32A]: -0.124 ± 0.039; for HESKLSILMDMFPAISKSKLQVHLLENNNDLNLTIGLLL [D32N]: 0.07 ± 0.25; for HESKLSILMDMFPAISKSKLQVHLLENNNDLQLTIGLLL [D32Q]: 0.032 ± 0.038. Regarding HESKLSILMDMFPAISKSKLQVHLLENNNDLHLTIGLLL [D32H], the abundance fitness is -0.106 ± 0.056. As for HESKLSILMDMFPAISKSKLQVHLLENNNDLLLTIGLLL [D32L], the abundance fitness is -0.416 ± 0.078. The same measure for HESKLSILMDMFPAISKSKLQVHLLENNNDLVLTIGLLL [D32V]: -0.302 ± 0.045. For the variant HESKLSILMDMFPAISKSKLQVHLLENNNDLTLTIGLLL [D32T], the abundance fitness is -0.183 ± 0.052. On to HESKLSILMDMFPAISKSKLQVHLLENNNDLWLTIGLLL [D32W], for which the abundance fitness was -0.499 ± 0.068. With HESKLSILMDMFPAISKSKLQVHLLENNNDLRLTIGLLL [D32R], the abundance fitness was -0.091 ± 0.038. For the variant HESKLSILMDMFPAISKSKLQVHLLENNNDLELTIGLLL [D32E], the abundance fitness is -0.055 ± 0.054. As to HESKLSILMDMFPAISKSKLQVHLLENNNDLGLTIGLLL [D32G], the abundance fitness is -0.082 ± 0.034. As to HESKLSILMDMFPAISKSKLQVHLLENNNDLYLTIGLLL [D32Y], the abundance fitness is -0.659 ± 0.33. For HESKLSILMDMFPAISKSKLQVHLLENNNHLDLTIGLLL [D30H], the abundance fitness was -0.145 ± 0.2. The same measure for HESKLSILMDMFPAISKSKLQVHLLENNNKLDLTIGLLL [D30K]: -0.165 ± 0.11; for HESKLSILMDMFPAISKSKLQVHLLENNNELDLTIGLLL [D30E]: -0.171 ± 0.042. As for HESKLSILMDMFPAISKSKLQVHLLENNNLLDLTIGLLL [D30L], the abundance fitness was -0.66 ± 0.18. Consider HESKLSILMDMFPAISKSKLQVHLLENNNALDLTIGLLL [D30A], for which the abundance fitness was -0.286 ± 0.035. HESKLSILMDMFPAISKSKLQVHLLENNNTLDLTIGLLL [D30T]: the abundance fitness is -0.813 ± 0.17. HESKLSILMDMFPAISKSKLQVHLLENNNMLDLTIGLLL [D30M]: the abundance fitness was found to be 0.097 ± 0.22. Regarding HESKLSILMDMFPAISKSKLQVHLLENNNQLDLTIGLLL [D30Q], the abundance fitness is -0.194 ± 0.075. As to HESKLSILMDMFPAISKSKLQVHLLENNNRLDLTIGLLL [D30R], the abundance fitness was -0.246 ± 0.045.

On to HESKLSILMDMFPAISKSKLQVHLLENNNGLDLTIGLLL [D30G], for which the abundance fitness was -0.759 ± 0.067. On to HESKLSILMDMFPAISKSKLQVHLLENNNCLDLTIGLLL [D30C], for which the abundance fitness is -0.261 ± 0.11. The figure for HESKLSILMDMFPAISKSKLQVHLLENNNSLDLTIGLLL [D30S] is -0.223 ± 0.072; for HESKLSILMDMFPAISKSKLQVHLLENNNDLDLSIGLLL [T34S] it is -0.235 ± 0.045. As to HESKLSILMDMFPAISKSKLQVHLLENNNDLDLDIGLLL [T34D], the abundance fitness was -0.88 ± 0.13. HESKLSILMDMFPAISKSKLQVHLLENNNDLDLCIGLLL [T34C]: the abundance fitness is -0.091 ± 0.06. HESKLSILMDMFPAISKSKLQVHLLENNNDLDLAIGLLL [T34A]: the abundance fitness was -0.092 ± 0.036. For the variant HESKLSILMDMFPAISKSKLQVHLLENNNDLDLNIGLLL [T34N], the abundance fitness is -0.296 ± 0.45. On to HESKLSILMDMFPAISKSKLQVHLLENNNDLDLPIGLLL [T34P], for which the abundance fitness was -0.943 ± 0.14. The figure for HESKLSILMDMFPAISKSKLQVHLLENNNDLDLEIGLLL [T34E] is -0.903 ± 0.11; for HESKLSILMDMFPAISKSKLQVHLLENNNDLDLLIGLLL [T34L] it is -0.729 ± 0.059. For the variant HESKLSILMDMFPAISKSKLQVHLLENNNDLDLVIGLLL [T34V], the abundance fitness came to 0.008 ± 0.037.

Turning to HESKLSILMDMFPAISKSKLQVHLLENNNDLDLQIGLLL [T34Q], the abundance fitness was -0.899 ± 0.12. Regarding HESKLSILMDMFPAISKSKLQVHLLENNNDLDLWIGLLL [T34W], the abundance fitness was -1.19 ± 0.18.

For HESKLSILMDMFPAISKSKLQVHLLENNNDLDLKIGLLL [T34K], the abundance fitness was -0.863 ± 0.37. In the case of HESKLSILMDMFPAISKSKLQVHLLENNNDLDLGIGLLL [T34G], the abundance fitness is -0.632 ± 0.059. The figure for HESKLSILMDMFPAISKSKLQVHLLENNNDLDLIIGLLL [T34I] is -0.447 ± 0.13. The same measure for HESKLSILMDMFPAISKSKLQVHLLENNNDLDLRIGLLL [T34R]: -0.993 ± 0.099; for HESKLSILMDMFPAISKSKLQVHLLEENNDLDLTIGLLL [N27E]: -0.134 ± 0.094.

For HESKLSILMDMFPAISKSKLQVHLLEINNDLDLTIGLLL [N27I], the abundance fitness was -0.461 ± 0.41. On to HESKLSILMDMFPAISKSKLQVHLLEGNNDLDLTIGLLL [N27G], for which the abundance fitness is -0.243 ± 0.042. The same measure for HESKLSILMDMFPAISKSKLQVHLLEWNNDLDLTIGLLL [N27W]: -0.364 ± 0.074; for HESKLSILMDMFPAISKSKLQVHLLELNNDLDLTIGLLL [N27L]: -0.325 ± 0.051. Take HESKLSILMDMFPAISKSKLQVHLLEVNNDLDLTIGLLL [N27V]: the abundance fitness was -0.415 ± 0.062. With HESKLSILMDMFPAISKSKLQVHLLECNNDLDLTIGLLL [N27C], the abundance fitness is -0.024 ± 0.07.

For HESKLSILMDMFPAISKSKLQVHLLERNNDLDLTIGLLL [N27R], the abundance fitness is -0.244 ± 0.04.

For HESKLSILMDMFPAISKSKLQVHLLEKNNDLDLTIGLLL [N27K], the abundance fitness was -0.267 ± 0.14. As for HESKLSILMDMFPAISKSKLQVHLLEFNNDLDLTIGLLL [N27F], the abundance fitness is -0.482 ± 0.25.

HESKLSILMDMFPAISKSKLQVHLLEQNNDLDLTIGLLL [N27Q]: the abundance fitness was -0.132 ± 0.072. For the variant HESKLSILMDMFPAISKSKLQVHLLEPNNDLDLTIGLLL [N27P], the abundance fitness was -0.997 ± 0.12.

Regarding HESKLSILMDMFPAISKSKLQVHLLEMNNDLDLTIGLLL [N27M], the abundance fitness was -0.191 ± 0.077.

For HESKLSILMDMFPAISKSKLQVHLLETNNDLDLTIGLLL [N27T], the abundance fitness was -0.273 ± 0.062. The figure for HESKLSILMDMFPAISKSKLQVHLLESNNDLDLTIGLLL [N27S] is -0.164 ± 0.044. In the case of HESKLSILMDMFPAISKSKLQVHLLENNNDLDETIGLLL [L33E], the abundance fitness stood at 0.06 ± 0.042. The figure for HESKLSILMDMFPAISKSKLQVHLLENNNDLDRTIGLLL [L33R] is 0.082 ± 0.032; for HESKLSILMDMFPAISKSKLQVHLLENNNDLDTTIGLLL [L33T] it is -0.004 ± 0.051. With HESKLSILMDMFPAISKSKLQVHLLENNNDLDPTIGLLL [L33P], the abundance fitness was -0.008 ± 0.05. The same measure for HESKLSILMDMFPAISKSKLQVHLLENNNDLDCTIGLLL [L33C]: 0.012 ± 0.053. For HESKLSILMDMFPAISKSKLQVHLLENNNDLDFTIGLLL [L33F], the abundance fitness was -0.258 ± 0.053. As to HESKLSILMDMFPAISKSKLQVHLLENNNDLDDTIGLLL [L33D], the abundance fitness was 0.031 ± 0.047. The same measure for HESKLSILMDMFPAISKSKLQVHLLENNNDLDGTIGLLL [L33G]: 0.031 ± 0.032. For HESKLSILMDMFPAISKSKLQVHLLENNNDLDNTIGLLL [L33N], the abundance fitness was found to be 0.075 ± 0.057.
